Positions count from the first letter of the chain named.
What was measured:
[1] = molecular target: T1, C12-279 D352R/Q186R/H350R (synthetic construct, Q186R,H350R,D352R); assay: cell_activity; PAM TTG
T1 chain: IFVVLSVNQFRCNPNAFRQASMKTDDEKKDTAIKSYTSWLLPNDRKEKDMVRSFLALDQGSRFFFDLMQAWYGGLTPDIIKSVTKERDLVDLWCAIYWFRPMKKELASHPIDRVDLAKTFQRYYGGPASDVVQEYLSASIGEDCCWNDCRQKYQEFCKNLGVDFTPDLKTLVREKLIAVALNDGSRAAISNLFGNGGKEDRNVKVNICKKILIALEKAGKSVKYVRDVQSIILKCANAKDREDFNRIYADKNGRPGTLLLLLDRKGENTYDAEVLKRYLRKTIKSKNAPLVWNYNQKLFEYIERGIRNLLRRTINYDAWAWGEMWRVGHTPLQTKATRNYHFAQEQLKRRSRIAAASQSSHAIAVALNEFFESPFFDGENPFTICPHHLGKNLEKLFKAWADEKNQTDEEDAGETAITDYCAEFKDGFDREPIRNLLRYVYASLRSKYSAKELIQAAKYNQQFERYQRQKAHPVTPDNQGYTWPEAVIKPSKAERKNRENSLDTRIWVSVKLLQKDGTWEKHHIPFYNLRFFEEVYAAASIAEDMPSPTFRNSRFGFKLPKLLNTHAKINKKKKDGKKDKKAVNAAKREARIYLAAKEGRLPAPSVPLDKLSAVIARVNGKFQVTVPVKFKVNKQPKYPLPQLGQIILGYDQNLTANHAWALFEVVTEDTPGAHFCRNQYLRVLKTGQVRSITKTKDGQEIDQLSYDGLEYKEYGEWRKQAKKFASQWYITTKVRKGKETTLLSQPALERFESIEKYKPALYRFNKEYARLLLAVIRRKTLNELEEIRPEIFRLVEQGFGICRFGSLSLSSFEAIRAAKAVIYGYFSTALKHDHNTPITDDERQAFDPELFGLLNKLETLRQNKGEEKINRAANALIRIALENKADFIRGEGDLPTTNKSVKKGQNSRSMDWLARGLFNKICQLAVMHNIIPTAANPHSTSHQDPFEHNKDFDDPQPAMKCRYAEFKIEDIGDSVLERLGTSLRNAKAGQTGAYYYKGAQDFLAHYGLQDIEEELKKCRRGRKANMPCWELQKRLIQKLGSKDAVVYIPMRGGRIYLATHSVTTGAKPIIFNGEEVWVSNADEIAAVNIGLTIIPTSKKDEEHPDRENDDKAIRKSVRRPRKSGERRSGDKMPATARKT
Method: (§1) Transfection: transfection was performed 12-14 h after plating. 1.5 μL PEI (Yeasen Biotechnology, 40815ES03, Polyethylenimine Linear (PEI) MW25000) and 500 ng mutation clone plasmid were added to 100 μL Opti-MEM per well of the 24-well plate, mixed, and added to the NAAN cell line for cell transfection after placing at room temperature for 20 min. After overnight transfection, a fresh culture medium was replaced, and the culture was continued for 72 h, followed by flow cytometry. Editing efficiencies of different mutant clones were characterized by the proportion of GFP-positive cells.
(§2) Editing efficiency of some selected mutants was tested in Reporter3 cell line using the same manner as described for the NAAN reporter system, except that the cell line was changed from NAAN cell line to Reporter3 cell line.

[2] = molecular target: T2, C12-279 Mut-03 (synthetic construct, G184R,Q186R,D352R); assay: cell_activity; PAM TTG
T2 chain: T1 chain with G184R, R350H
Method: as §1, §2

B1: C12-279 Reporter3 sgRNA ; Reporter3 target (ssRNA ; dsDNA)
RNA: GUAAUGCGUCUCCCAUUGACGCCUCACCUCGCGACGCAAUGAUG
DNA 1: CTCACCTCGCGACGCAATGATG
DNA 2: CATCATTGCGTCGCGAGGTGAG
binding signal [1]: 2.11 fold of C12-279 | binding signal [2]: 2.28 fold of C12-279
